Tests used:
[1] = Mutant E324G provided with propionyl-CoA and acetyl-CoA; type: biochemical; settings: propionyl-CoA + acetyl-CoA
Description: (§1) Acetyl-CoA was used at a final concentration of 1.5 mM and 30 mM of the substrate being studied (e.g. carboxylic acid salts, such as sodium acrylate) or 1.5 mM of propionyl-CoA in 50 mM Hepes buffer (pH 7.5). The reaction was started by addition of 0.5 mg/mL of YdiF pure protein or mutants to a final volume of 250 μL and incubated for 1 to 10 hours at 30° C.
(§2) All samples were prepared in triplicate and spun down at 15000 g for 20 min at 4° C. Detection of the thiol product (e.g. acryloyl-CoA) synthesized from CoA-transferase activity and the keto-thiol product (e.g. 3-oxopent-4-enoyl-CoA) due to putative thiolase activity of YdiF (or homologues) was carried out by Liquid Chromatography coupled to a qTof-Mass spectrometry (in positive mode), using a C18 column (Zorbax Eclipse C18, 2.1×50 mm, 1.8μ, Agilent, code product: 959757-902) and a gradient of 10 mM ammonium acetate and acetonitrile as mobile phase.
(§3) Mutations were introduced as described in Example 1 to replace the glutamate in position 324 of YdiF (see Selmer et al., 2002) with glycine (mutant E324G) or leucine (E324L). Activity of the mutant enzymes was studied as described in Example 2.

[2] = Activity of YdiF mutant enzymes (evaluation of potential active sites); type: biochemical; settings: studied as in Example 2
Description: YdiF mutants were prepared using the relevant primers to introduce the mutated bases via the Quick change lightning kit (Agilent, code product: 210518-5), and cloned into E. coli. In addition, all the proteins used in this experiment have the following extra amino acids added in the N-terminal extremity of the original protein sequence (SEQ ID NO:1): […]. Those additional amino acids correspond to: two amino acids (M and G), a 6×His-tag followed by a 3 amino acids linker (SSG), and a specific proteolytic cleavage site (thrombin site, underlined) (SEQ ID NO: 22). All the sequences were confirmed by DNA sequencing.
as §1, §2
Mutations were introduced as described in Example 1 at the following positions previously found to be potentially involved in the active site of other β-ketothiolases: C258A, S60A, C112A, S38A, C390A. Activity of the mutant enzymes was studied as described in Example 2.
as §3

B1: E324G: YdiF mutant, glycine for the glutamate in position 324, SEQ ID NO: 3 (protein)
chain: MGHHHHHHSSGLVPRGSMRKVPIITADEAAKLIKDGDTVTTSGFVGNAIPEALDRAVEKRFLETGEPKNITYVYCGSQGNRDGRGAEHFAHEGLLKRYIAGHWATVPALGKMAMENKMEAYNVSQGALCHLFRDIASHKPGVFTKVGIGTFIDPRNGGGKVNDITKEDIVELVEIKGQEYLFYPAFPIHVALIRGTYADESGNITFEKEVAPLEGTSVCQAVKNSGGIVVVQVERVVKAGTLDPRHVKVPGIYVDYVVVADPEDHQQSLDCEYDPALSGEHRRPEVVGEPLPLSAKKVIGRRGAIELEKDVAVNLGVGAPEYVASVADEEGIVDFMTLTAGSGAIGGVPAGGVRFGASYNADALIDQGYQFDYYDGGGLDLCYLGLAECDEKGNINVSRFGPRIAGCGGFINITQNTPKVFFCGTFTAGGLKVKIEDGKVIIVQEGKQKKFLKAVEQITFNGDVALANKQQVTYITERCVFLLKEDGLHLSEIAPGIDLQTQILDVMDFAPIIDRDANGQIKLMDAALFAEGLMGLKEMKS
keto-thiol product (3-oxopentanoyl-CoA) [1]: presence of the keto-thiol product | transferase activity [2]: Abolition of transferase activity

— patent publication US10570379B2, “Polypeptides for carbon-carbon bond formation and uses thereof” (INVISTA North America S.à.r.l., priority 2015, dated 2020)
